The source of these data is patent US20180230233A1 (Genentech, published 2018).

B1: hu31A.v14 IgG1 (antibody, V domains shown)
VH: EVQLVESGGGLVQPGGSLRLSCAASGFTFSDYGMVWVRQAPGKGLEWVAFISSGSSTVYYADTMKGRFTISRDNSKNTLYLQMNSLRAEDTAVVYCTRRDNYDWYFDVWGQGTLVTVSS
VL: DIQMTQSPSSLSASVGDRVTITCSASSSVTYMYWYQQKPGKSPKPWIYRTSDLASGVPSRFSGSGSGTDFTLTISSLQPEDFATYYCQHYHSYPLTFGQGTKVEIK
B2: hu31A.v9 IgG1 (antibody, V domains shown)
VH: EVQLVESGGGLVQPGGSLRLSCAASGFTFSSFGMHWVRQAPGKGLEWVAFISSGSSTVYYADTMKGRFTISRDNSKNTLYLQMNSLRAEDTAVVYCARRDNYDWYFDVWGQGTLVTVSS
VL: DIQLTQSPSSLSASVGDRVTITCSASSSVTYMYWYQQKPGKSPKPWIYRTSDLASGVPSRFSGSGSGTDYTLTISSLQPEDFATYYCQHYHSYPLTFGQGTKVEIK
notes: also called v9 (of hu31A)
B3: hu31A.v2 IgG1 (antibody, V domains shown)
VH: EVQLVESGGGLVQPGGSLRLSCAASGFTFSDYGMVWVRQAPGKGLEWVGFISSGSSTVYYADTMKGRFTISRDNSKNTLYLQMNSLRAEDTAVVYCARRDNYDWYFDVWGQGTLVTVSS
VL: DIQMTQSPSSLSASVGDRVTITCSASSSVTYMYWYQQKPGKSPKPWIYRTSDLASGVPSRFSGSGSGTDFTLTISSLQPEDFATYYCQHYHSYPLTFGQGTKVEIK
notes: also called v2 (of hu31A)
B4: hu31A.v4 IgG1 (antibody, V domains shown)
VH: EVQLVESGGGLVQPGGSLRLSCAASGFTFSDYGMVWVRQAPGKGLEWVAFISSGSSTVYYADTMKGRFTISRDNSKNTLYLQMNSLRAEDTAVVYCARRDNYDWYFDVWGQGTLVTVSS
VL: DIQMTQSPSSLSASVGDRVTITCSASSSVTYMYWYQQKPGKAPKLLIYRTSDLASGVPSRFSGSGSGTDFTLTISSLQPEDFATYYCQHYHSYPLTFGQGTKVEIK
notes: also called v4 (of hu31A)
B5: hu31A.v7 IgG1 (antibody, V domains shown)
VH: EVQLVESGGGLVQPGGSLRLSCAASGFTFSSFGMHWVRQAPGKGLEWVAFISSGSSTVYYADTMKGRFTISRDNSKNTLYLQMNSLRAEDTAVVYCARRDNYDWYFDVWGQGTLVTVSS
VL: DIQMTQSPSSLSASVGDRVTITCSASSSVTYMYWYQQKPGKAPKLLIYRTSDLASGVPSRFSGSGSGTDFTLTISSLQPEDFATYYCQHYHSYPLTFGQGTKVEIK
notes: also called v7 (of hu31A)
B6: hu31A.v10 IgG1 (antibody, V domains shown)
VH: EVQLVESGGGLVQPGGSLRLSCAASGFTFSDYGMVWVRQAPGKGLEWVAFISSGSSTVYYADTMKGRFTISRDNSKNTLYLQMNSLRAEDTAVYYCTRRNYDDWYFDVWGQGTLVTVSS
VL: DIQMTQSPSSLSASVGDRVTITCSASSSVTYMYWYQQKPGKAPKLLIYRTSDLASGVPSRFSGSGSGTDFTLTISSLQPEDFATYYCQHYHSYPLTFGQGTKVEIK
notes: also called v10 (of hu31A)
B7: hu31A.v15 IgG1 (antibody, V domains shown)
VH: EVQLVESGGGLVQPGGSLRLSCAASGFTFSDYGMVWVRQAPGKGLEWVAFISSGSSTVYYADTMKGRFTISRDNSKNTLYLQMNSLRAEDTAVVYCTRRDNYDWYFDVWGQGTLVTVSS
VL: DIQLTQSPSSLSASVGDRVTITCSASSSVTYMYWYQQKPGKSPKPWIYRTSDLASGVPSRFSGSGSGTDYTLTISSLQPEDFATYYCQHYHSYPLTFGQGTKVEIK
B8: hu31A.v3 IgG1 (antibody, V domains shown)
VH: EVQLVESGGGLVQPGGSLRLSCAASGFTFSDYGMVWVRQAPGKGLEWVGFISSGSSTVYYADTMKGRFTISRDNSKNTLYLQMNSLRAEDTAVVYCARRDNYDWYFDVWGQGTLVTVSS
VL: DIQLTQSPSSLSASVGDRVTITCSASSSVTYMYWYQQKPGKSPKPWIYRTSDLASGVPSRFSGSGSGTDYTLTISSLQPEDFATYYCQHYHSYPLTFGQGTKVEIK
notes: also called v3 (of hu31A)
B9: hu31A.v1 IgG1 (antibody, V domains shown)
VH: EVQLVESGGGLVQPGGSLRLSCAASGFTFSDYGMVWVRQAPGKGLEWVGFISSGSSTVYYADTMKGRFTISRDNSKNTLYLQMNSLRAEDTAVVYCARRDNYDWYFDVWGQGTLVTVSS
VL: DIQMTQSPSSLSASVGDRVTITCSASSSVTYMYWYQQKPGKAPKLLIYRTSDLASGVPSRFSGSGSGTDFTLTISSLQPEDFATYYCQHYHSYPLTFGQGTKVEIK
notes: also called v1 (of hu31A)
B10: hu31A.v12 IgG1 (antibody, V domains shown)
VH: EVQLVESGGGLVQPGGSLRLSCAASGFTFSDYGMVWVRQAPGKGLEWVAFISSGSSTVYYADTMKGRFTISRDNSKNTLYLQMNSLRAEDTAVYYCTRRNYDDWYFDVWGQGTLVTVSS
VL: DIQLTQSPSSLSASVGDRVTITCSASSSVTYMYWYQQKPGKSPKPWIYRTSDLASGVPSRFSGSGSGTDYTLTISSLQPEDFATYYCQHYHSYPLTFGQGTKVEIK
notes: also called v12 (of hu31A)
B11: hu31A.v13 IgG1 (antibody, V domains shown)
VH: EVQLVESGGGLVQPGGSLRLSCAASGFTFSDYGMVWVRQAPGKGLEWVAFISSGSSTVYYADTMKGRFTISRDNSKNTLYLQMNSLRAEDTAVVYCTRRDNYDWYFDVWGQGTLVTVSS
VL: DIQMTQSPSSLSASVGDRVTITCSASSSVTYMYWYQQKPGKAPKLLIYRTSDLASGVPSRFSGSGSGTDFTLTISSLQPEDFATYYCQHYHSYPLTFGQGTKVEIK
B12: hu31A.v6 IgG1 (antibody, V domains shown)
VH: EVQLVESGGGLVQPGGSLRLSCAASGFTFSDYGMVWVRQAPGKGLEWVAFISSGSSTVYYADTMKGRFTISRDNSKNTLYLQMNSLRAEDTAVVYCARRDNYDWYFDVWGQGTLVTVSS
VL: DIQLTQSPSSLSASVGDRVTITCSASSSVTYMYWYQQKPGKSPKPWIYRTSDLASGVPSRFSGSGSGTDYTLTISSLQPEDFATYYCQHYHSYPLTFGQGTKVEIK
notes: also called v6 (of hu31A)
B13: hu31A.v5 IgG1 (antibody, V domains shown)
VH: EVQLVESGGGLVQPGGSLRLSCAASGFTFSDYGMVWVRQAPGKGLEWVAFISSGSSTVYYADTMKGRFTISRDNSKNTLYLQMNSLRAEDTAVVYCARRDNYDWYFDVWGQGTLVTVSS
VL: DIQMTQSPSSLSASVGDRVTITCSASSSVTYMYWYQQKPGKSPKPWIYRTSDLASGVPSRFSGSGSGTDFTLTISSLQPEDFATYYCQHYHSYPLTFGQGTKVEIK
notes: also called v5 (of hu31A)
B14: hu31A.v8 IgG1 (antibody, V domains shown)
VH: EVQLVESGGGLVQPGGSLRLSCAASGFTFSSFGMHWVRQAPGKGLEWVAFISSGSSTVYYADTMKGRFTISRDNSKNTLYLQMNSLRAEDTAVVYCARRDNYDWYFDVWGQGTLVTVSS
VL: DIQMTQSPSSLSASVGDRVTITCSASSSVTYMYWYQQKPGKSPKPWIYRTSDLASGVPSRFSGSGSGTDFTLTISSLQPEDFATYYCQHYHSYPLTFGQGTKVEIK
notes: also called v8 (of hu31A)
B15: huE104.v9 IgG1 (chimeric heavy chain) (antibody, V domains shown)
VH: QSLEESGGGLFKPTDTLTLTCTVSRFSLIGYAITWVRQSPENGLEWIGGISSAATTFYSSWAKSRSTITRNTNENTVTLKMTSLTAADTATYFCARDPRGYGAALDRLDLWGQGTLVTVSS
VL: DIQMTQSPSSLSASVGDRVTITCQSIKSVYNNRLGWYQQKPGKAPKLLIYETSILTSGVPSRFSGSGSGTDFTLTISSLQPEDFATYYCAGGFDRSGDTTFGQGTKVEIK
notes: also called E104.v9 chimeric clone
B16: huE104.v3 IgG1 (antibody, V domains shown)
VH: EVQLVESGPGLVKPSETLSLTCTVSRFSLIGYAITWVRQPPGKGLEWIGGISSAATTFYSSWAKSRSTISRDTSKNQVSLKLSSVTAADTAVYFCARDPRGYGAALDRLDLWGQGTLVTVSS
VL: DIQMTQSPSSLSASVGDRVTITCQSIKSVYNNRLGWYQQKPGKAPKLLIYETSILTSGVPSRFSGSGSGTDFTLTISSLQPEDFATYYCAGGFDRSGDTTFGQGTKVEIK
B17: huE104.v5 IgG1 (antibody, V domains shown)
VH: EVQLVESGPGLVKPSETLSLTCTVSRFSLIGYAITWIRQPPGKGLEWIGGISSAATTFYSSWAKSRVTISVDTSKNQFSLKLSSVTAADTAVYYCARDPRGYGAALDRLDLWGQGTLVTVSS
VL: DAQLTQSPSSLSASVGDRVTITCQSIKSVYNNRLGWYQQKPGKPPKLLIYETSILTSGVPSRFSGSGSETDFTLTISSLQPEDFATYFCAGGFDRSGDTTFGQGTKVEIK
B18: huE104.v6 IgG1 (antibody, V domains shown)
VH: EVQLVESGPGLVKPSETLSLTCTVSRFSLIGYAITWIRQPPGKGLEWIGGISSAATTFYSSWAKSRVTISRDTSKNQVSLKLSSVTAADTAVYYCARDPRGYGAALDRLDLWGQGTLVTVSS
VL: DAQLTQSPSSLSASVGDRVTITCQSIKSVYNNRLGWYQQKPGKPPKLLIYETSILTSGVPSRFSGSGSETDFTLTISSLQPEDFATYFCAGGFDRSGDTTFGQGTKVEIK
B19: huE104.v7 IgG1 (antibody, V domains shown)
VH: EVQLVESGPGLVKPSETLSLTCTVSRFSLIGYAITWVRQPPGKGLEWIGGISSAATTFYSSWAKSRSTISRDTSKNQVSLKLSSVTAADTAVYFCARDPRGYGAALDRLDLWGQGTLVTVSS
VL: DAQLTQSPSSLSASVGDRVTITCQSIKSVYNNRLGWYQQKPGKPPKLLIYETSILTSGVPSRFSGSGSETDFTLTISSLQPEDFATYFCAGGFDRSGDTTFGQGTKVEIK

As a reminder, the Kd is a measure of binding affinity in units of concentration.

The target in the experiment is T1, recombinant His-tagged human tryptase beta 1 monomer (human, UniProt Q15661 31-275).
T1 construct: also called His6-tagged tryptase monomer; human tryptase b1 monomer
T1 sequence (Q15661 other isoform, or with tags, fused parts or gaps): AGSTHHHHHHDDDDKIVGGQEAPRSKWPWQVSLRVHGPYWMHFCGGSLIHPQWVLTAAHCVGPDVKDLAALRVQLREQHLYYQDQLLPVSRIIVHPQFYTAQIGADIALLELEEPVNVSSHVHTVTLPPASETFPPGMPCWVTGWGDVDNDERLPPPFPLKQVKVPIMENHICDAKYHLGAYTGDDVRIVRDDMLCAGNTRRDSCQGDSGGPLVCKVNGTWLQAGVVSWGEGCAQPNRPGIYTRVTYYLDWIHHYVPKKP
Kind of experiment: SPR (BIAcore T200); IgG1 captured by anti-human Fc, His-tagged monomer injected. Here is the method:
The assay can use a BIAcore® T200 or an equivalent device. Briefly, BIAcore® Series S CM5 sensor chips (or equivalent sensor chips) are immobilized with monoclonal mouse anti-human IgG (Fc) antibody and anti-tryptase antibodies are subsequently captured on the flow cell. Serial 3-fold dilutions of the human tryptase beta 1 monomer are injected at a flow rate of 30 μl/min. Each sample is analyzed with 3 min association and 10 min dissociation. The assay is performed at 25° C. After each injection, the chip is regenerated using 3 M MgCl₂. Binding response is corrected by subtracting the response units (RU) from a flow cell capturing an irrelevant IgG at similar density. A 1:1 Languir model of simultaneous fitting of kₒₙ and koff is used for kinetics analysis.
In this experiment, all the humanized variants were expressed as IgG by transient transfection of 293 cells. IgG was purified with protein G affinity chromatography. The affinity of each variant for recombinant His-tagged human tryptase beta 1 monomer (SEQ ID NO: 128) was determined by SPR analysis using a BIAcore® T200. BIAcore® Series S CM5 sensor chips were immobilized with monoclonal mouse anti-human IgG (Fc) antibody (Human antibody capture kit from GE Healthcare) and anti-tryptase variants were subsequently captured on each flow cell. Serial 3-fold dilutions of the human tryptase beta 1 monomer were injected at a flow rate of 30 μl/min. Each sample was analyzed with 3 min association and 10 min dissociation. After each injection, the chip was regenerated using 3 M MgCl₂. Binding response was corrected by subtracting the response units (RU) from a flow cell capturing an irrelevant IgG at similar density. A 1:1 Languir model of simultaneous fitting of kₒₙ and koff was used for kinetics analysis.
For orientation: In SPR one partner is held on a chip, and binding of the other changes the refractive index at the surface.
With B1, the equilibrium dissociation constant (Kd) came out at 1.34 nM.

Regarding B2, the Kd came out at 0.94 nM.

In the case of B3, the dissociation constant Kd is 0.74 nM.

Consider B4, for which the Kd amounted to 11.8 nM.

For the molecule B5, the Kd is 2.06 nM.

On to B6, for which the dissociation constant Kd was 1.19 nM.

In the case of B7, the Kd amounted to 1.32 nM.

Consider B8, for which the equilibrium dissociation constant (Kd) turned out to be 0.79 nM.

Turning to B9, the Kd came to 4.04 nM.

B10: the Kd stood at 0.43 nM.

B11: the equilibrium dissociation constant (Kd) turned out to be 9.65 nM.

Consider B12, for which the Kd came to 1.65 nM.

As to B13, the Kd worked out at 1.68 nM.

Take B14: the Kd was found to be 0.94 nM.

B15: the Kd turned out to be 0.24 nM.

Consider B16, for which the Kd is 0.21 nM.

As to B17, the Kd was determined as 0.18 nM.

As to B18, the equilibrium dissociation constant (Kd) stood at 0.14 nM.

In the case of B19, the equilibrium dissociation constant (Kd) worked out at 0.25 nM.
